pKd: −log10 of the molar value. Like-named read-outs stand apart in the source and are kept apart here.

The target of assay [1] is S. pombe ubiquitin with an N-terminal 6xhistidine-tag, TEV-cleavage site and an N-terminal free cysteine (S. pombe) (UniProt P0CG72). Briefly: NMR titration; 100 µM 15N-ubiquitin, unlabelled peptide or protein added or titrated (peptides to 1 mM, WT Dss1 peptide to 5 mM); 20 mM NaH2PO4, 150 mM NaCl, 5 mM TCEP, pH 7.5; CSPs of 1H-15N-HSQC, global fit to a one-site model.
The target in assay [2] is SUMO (Homo sapiens) (UniProt P63165). To be noted: cited from earlier work.
For assay [3] the target is unchanged. To be noted: cited from earlier work. This is another data set of the same source.
The target in assay [4] is ubiquitin (UniProt P0CG48). The conditions noted are these: cited from earlier work.
The target of assay [5] is ubiquitin (UniProt P0CG48). To be noted: cited from earlier work. The source holds these as a separate data set.

Chain of SUMO (Homo sapiens) (P63165 2-97): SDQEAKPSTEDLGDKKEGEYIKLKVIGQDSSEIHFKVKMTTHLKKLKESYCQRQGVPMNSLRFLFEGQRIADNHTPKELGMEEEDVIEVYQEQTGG
Chain of RABEX5 UIM (Q9UJ41 48-74): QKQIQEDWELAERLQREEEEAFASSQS
Chain of Vps27 UIM (P40343 258-277): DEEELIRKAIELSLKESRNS

As to “Dss1 DMD (from UniProt O14140 1-71) (natural protein)”, in assay [1], the pKd (commonly the Kd on a negative log10 scale, so that one unit is a factor of ten) was 4.60. Still for that read-out and setting: then “Dss1 DWD (from UniProt O14140 1-71) (natural protein)”, with 3.52. Regarding PIASX (from UniProt O75928), the pKd in assay [2] is 6.00. Turning to PML-P (from UniProt P29590), the pKd in assay [3] is 4.00. For RABEX5 UIM (from UniProt Q9UJ41), the pKd in assay [4] is 4.00.

“Spd1 peptide (15-mer with the DisUBM of S. pombe Spd1)” gave a pKd in assay [1] of 2.51. On to Vps27 UIM (from UniProt P40343), for which the pKd in assay [5] is 4.70.

Values taken from article PMC9381478, “A context-dependent and disordered ubiquitin-binding motif” (Cellular and Molecular Life Sciences: CMLS, 2022).
